Measured values as given in patent US20060210984A1.
Values belong to the substance of their own block, whether it stands above or below them.

How the values were obtained:
IL-2 (human) [1] = target: IL-2 (human) (UniProt P60568); assay: sandwich microarray in flow cell, chemiluminescence, cytokine 1 ng/ml; AVG of Chips 1-5
IL-2 (human) [2] = target: IL-2 (human) (UniProt P60568); assay: sandwich microarray in flow cell, chemiluminescence, cytokine 1 ng/ml; Chip 1
IL-2 (human) [3] = target: IL-2 (human) (UniProt P60568); assay: sandwich microarray in flow cell, chemiluminescence, cytokine 1 ng/ml; Chip 2
IL-2 (human) [4] = target: IL-2 (human) (UniProt P60568); assay: sandwich microarray in flow cell, chemiluminescence, cytokine 1 ng/ml, divided by chip-specific PNA calibration factor; Chip 1
IL-2 (human) [5] = target: IL-2 (human) (UniProt P60568); assay: sandwich microarray in flow cell, chemiluminescence, cytokine 1 ng/ml, divided by chip-specific PNA calibration factor; Chip 4
IL-2 (human) [6] = target: IL-2 (human) (UniProt P60568); assay: sandwich microarray in flow cell, chemiluminescence, cytokine 1 ng/ml; Chip 4
IL-2 (human) [7] = target: IL-2 (human) (UniProt P60568); assay: sandwich microarray in flow cell, chemiluminescence, cytokine 1 ng/ml; Chip 3
IL-2 (human) [8] = target: IL-2 (human) (UniProt P60568); assay: sandwich microarray in flow cell, chemiluminescence, cytokine 1 ng/ml; Chip 5
IL-2 (human) [9] = target: IL-2 (human) (UniProt P60568); assay: sandwich microarray in flow cell, chemiluminescence, cytokine 1 ng/ml, divided by chip-specific PNA calibration factor; Chip 3
IL-2 (human) [10] = target: IL-2 (human) (UniProt P60568); assay: sandwich microarray in flow cell, chemiluminescence, cytokine 1 ng/ml, divided by chip-specific PNA calibration factor; AVG of Chips 1-5
IL-2 (human) [11] = target: IL-2 (human) (UniProt P60568); assay: sandwich microarray in flow cell, chemiluminescence, cytokine 1 ng/ml, divided by chip-specific PNA calibration factor; Chip 2
IL-2 (human) [12] = target: IL-2 (human) (UniProt P60568); assay: sandwich microarray in flow cell, chemiluminescence, cytokine 1 ng/ml, divided by chip-specific PNA calibration factor; Chip 5
IL-12p70 (human) [13] = target: IL-12p70 (human) (UniProt P29459); assay: sandwich microarray in flow cell, chemiluminescence, cytokine 1 ng/ml; AVG of Chips 1-5
Chain of UniProt P29459 (P29459 23-219 limits assumed, chain 1 of 2): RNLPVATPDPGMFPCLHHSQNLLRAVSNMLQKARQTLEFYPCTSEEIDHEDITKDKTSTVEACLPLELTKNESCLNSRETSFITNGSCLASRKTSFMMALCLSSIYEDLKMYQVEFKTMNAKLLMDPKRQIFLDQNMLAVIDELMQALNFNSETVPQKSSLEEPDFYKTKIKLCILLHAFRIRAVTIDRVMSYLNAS
Chain of UniProt P29459 (P29460 23-328 limits assumed, chain 2 of 2, further chain): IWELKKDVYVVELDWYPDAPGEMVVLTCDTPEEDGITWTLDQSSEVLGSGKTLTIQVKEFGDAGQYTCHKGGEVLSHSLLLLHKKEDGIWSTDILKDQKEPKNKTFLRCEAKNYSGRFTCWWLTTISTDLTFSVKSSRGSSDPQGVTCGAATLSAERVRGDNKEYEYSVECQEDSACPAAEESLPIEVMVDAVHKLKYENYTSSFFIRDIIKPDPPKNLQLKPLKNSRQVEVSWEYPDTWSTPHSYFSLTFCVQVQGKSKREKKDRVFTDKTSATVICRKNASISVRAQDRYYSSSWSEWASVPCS

IL-12p70 (human) [14] = target: IL-12p70 (human) (UniProt P29459); assay: sandwich microarray in flow cell, chemiluminescence, cytokine 1 ng/ml; Chip 1
IL-12p70 (human) [15] = target: IL-12p70 (human) (UniProt P29459); assay: sandwich microarray in flow cell, chemiluminescence, cytokine 1 ng/ml; Chip 2
IL-12p70 (human) [16] = target: IL-12p70 (human) (UniProt P29459); assay: sandwich microarray in flow cell, chemiluminescence, cytokine 1 ng/ml, divided by chip-specific PNA calibration factor; Chip 1
IL-12p70 (human) [17] = target: IL-12p70 (human) (UniProt P29459); assay: sandwich microarray in flow cell, chemiluminescence, cytokine 1 ng/ml, divided by chip-specific PNA calibration factor; Chip 4
IL-12p70 (human) [18] = target: IL-12p70 (human) (UniProt P29459); assay: sandwich microarray in flow cell, chemiluminescence, cytokine 1 ng/ml; Chip 4
IL-12p70 (human) [19] = target: IL-12p70 (human) (UniProt P29459); assay: sandwich microarray in flow cell, chemiluminescence, cytokine 1 ng/ml; Chip 3
IL-12p70 (human) [20] = target: IL-12p70 (human) (UniProt P29459); assay: sandwich microarray in flow cell, chemiluminescence, cytokine 1 ng/ml; Chip 5
IL-12p70 (human) [21] = target: IL-12p70 (human) (UniProt P29459); assay: sandwich microarray in flow cell, chemiluminescence, cytokine 1 ng/ml, divided by chip-specific PNA calibration factor; Chip 3
IL-12p70 (human) [22] = target: IL-12p70 (human) (UniProt P29459); assay: sandwich microarray in flow cell, chemiluminescence, cytokine 1 ng/ml, divided by chip-specific PNA calibration factor; AVG of Chips 1-5
IL-12p70 (human) [23] = target: IL-12p70 (human) (UniProt P29459); assay: sandwich microarray in flow cell, chemiluminescence, cytokine 1 ng/ml, divided by chip-specific PNA calibration factor; Chip 2
IL-12p70 (human) [24] = target: IL-12p70 (human) (UniProt P29459); assay: sandwich microarray in flow cell, chemiluminescence, cytokine 1 ng/ml, divided by chip-specific PNA calibration factor; Chip 5

Chain of UniProt P60568 (P60568 21-153 limits assumed): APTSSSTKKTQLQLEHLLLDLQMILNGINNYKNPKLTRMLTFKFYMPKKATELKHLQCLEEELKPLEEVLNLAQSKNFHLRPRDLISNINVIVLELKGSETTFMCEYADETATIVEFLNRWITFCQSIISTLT

chemiluminescent spot intensity (Un-Calibrated Data) (IL-2 (human) [1]): 228
chemiluminescent spot intensity (Un-Calibrated Data) (IL-2 (human) [2]): 251
chemiluminescent spot intensity (Un-Calibrated Data) (IL-2 (human) [3]): 127
chemiluminescent spot intensity (Calibrated Data) (IL-2 (human) [4]): 421
chemiluminescent spot intensity (Calibrated Data) (IL-2 (human) [5]): 430
chemiluminescent spot intensity (Un-Calibrated Data) (IL-2 (human) [6]): 196
chemiluminescent spot intensity (Un-Calibrated Data) (IL-2 (human) [7]): 441
chemiluminescent spot intensity (Un-Calibrated Data) (IL-2 (human) [8]): 126
chemiluminescent spot intensity (Calibrated Data) (IL-2 (human) [9]): 441
chemiluminescent spot intensity (Calibrated Data) (IL-2 (human) [10]): 423
chemiluminescent spot intensity (Calibrated Data) (IL-2 (human) [11]): 434
chemiluminescent spot intensity (Calibrated Data) (IL-2 (human) [12]): 389
Substance: MAb IL-2 (monoclonal capture antibody of the anti-human IL-2 OptEIA matched pair, BD Biosciences-Pharmingen)

chemiluminescent spot intensity (Un-Calibrated Data) (IL-12p70 (human) [13]): 490
chemiluminescent spot intensity (Un-Calibrated Data) (IL-12p70 (human) [14]): 554
chemiluminescent spot intensity (Un-Calibrated Data) (IL-12p70 (human) [15]): 255
chemiluminescent spot intensity (Calibrated Data) (IL-12p70 (human) [16]): 929
chemiluminescent spot intensity (Calibrated Data) (IL-12p70 (human) [17]): 872
chemiluminescent spot intensity (Un-Calibrated Data) (IL-12p70 (human) [18]): 397
chemiluminescent spot intensity (Un-Calibrated Data) (IL-12p70 (human) [19]): 956
chemiluminescent spot intensity (Un-Calibrated Data) (IL-12p70 (human) [20]): 288
chemiluminescent spot intensity (Calibrated Data) (IL-12p70 (human) [21]): 956
chemiluminescent spot intensity (Calibrated Data) (IL-12p70 (human) [22]): 903
chemiluminescent spot intensity (Calibrated Data) (IL-12p70 (human) [23]): 872
chemiluminescent spot intensity (Calibrated Data) (IL-12p70 (human) [24]): 888
Substance: MAb IL-12 p70 (monoclonal capture antibody of the anti-human IL-12p70 OptEIA matched pair, BD Biosciences-Pharmingen)
